From article PMC3226451

Columns and labels:
[1] = target: L19-UG-TNFRII (human) (UniProt P20333); assay: SEC; Superdex 200 (S200) FPLC of purified L19-UG-TNFRII in native conditions
[2] = target: L19-UG-TNFRII (human) (UniProt P20333); assay: SDS-PAGE, non-reducing; SDS-PAGE 4%-12% of purified L19-UG-TNFRII under non-reducing conditions

stoichiometry N [1]: 2
stoichiometry N [2]: 2
Substance: L19-UG-TNFRII (from UniProt P20333 23-257)
